The target of the data set is T1, rCmeR C69S/C166S C69S;C166S (Campylobacter jejuni NCTC 11168?) (UniProt Q0PBE2).
T1 sequence: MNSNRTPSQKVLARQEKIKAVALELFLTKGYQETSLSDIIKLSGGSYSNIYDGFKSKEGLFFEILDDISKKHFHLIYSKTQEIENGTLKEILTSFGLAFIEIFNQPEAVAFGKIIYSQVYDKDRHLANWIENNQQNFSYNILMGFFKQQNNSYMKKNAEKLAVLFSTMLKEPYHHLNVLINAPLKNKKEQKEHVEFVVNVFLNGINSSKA
Kind of data set: EMSA. The settings on record: 20 mM HEPES pH 7.6, 1 mM EDTA, 10 mM ([…], room temperature 30 min.

The text below walks through data of publication PMC3100323.

Consider “AGGCTTTGTATTAGCTCCTATGCTTATTTAAATCAAACCCTAGGTTTTTCTCTCCTAGGGTTAAAATTTTTTCATTAGTTTTTAAGTATATACTACGCTATAATATTCATTTTTAATTTTCTTTAAGAAAGGAATTTAATGAAGATAAAAGTTGGGTTGATTTTTTCAGGTATTGCTTG (double strand) [cj0089 promoter (lipoprotein operon), 179 bp]”, for which the binding result is recorded as “binds more weakly”.
